Results: US20200087363A1 (IMMATICS BIOTECHNOLOGIES, published 2020)

Each binder was assayed against T1, HLA-B*44:05 (human) (assay: UV peptide exchange, anti-b2m ELISA).
T1 construct: also called peptide-receptive MHC class I molecule
Summary of the method: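 Peptide-receptive HLA-B*44:05 monomers after UV-induced exchange were diluted 100-fold and captured on streptavidin-coated plates for 1 h at 37 °C. Bound complexes were detected with 2 µg/ml HRP-anti-β2m (1 h, 37 °C) and TMB, read at 450 nm. β2m signal reflects peptide-stabilized complex yield.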

| peptide exchange yield [%] | Binder |
| --- | --- |
| 50 to 75 | GETCVRITY |
| 20 to 50 | DEQLLLRF |
| 20 to 50 | DELSVGRY |
| 20 to 50 | AAEPLVGQRW |
| 50 to 75 | AEALVDGKW |
| 50 to 75 | QEIGQKTSV |
| 50 to 75 | QEVAGYVLI |
| 50 to 75 | VELMFPLLL |
| 50 to 75 | SQYPHTHTF |
| 20 to 50 | YENILNAI |
| > 75 | QEDKATQTL |
| 50 to 75 | TENPKKFKI |
| 50 to 75 | HEHGLFNLY |
| 50 to 75 | TEHFLKKFF |
| 50 to 75 | AECILSKRL |
| 50 to 75 | GEPVTQPGSLL |
| 50 to 75 | MEFQGPMPAGM |
| 50 to 75 | AELDHLASL |
| 50 to 75 | TEFELLHQV |
| 50 to 75 | QEFPAHSL |
| > 75 | QELLDIANYL |
| 50 to 75 | REDLVGPEV |
| 20 to 50 | VELEVPQL |
| 20 to 50 | YEIRAEAL |
| 20 to 50 | IEVSSPITLQAL |

| peptide exchange yield [%] | Binder |
| --- | --- |
| > 75 | IEVSSPITL |
| 50 to 75 | CDAQIQYSY |
| 50 to 75 | GEQPPEGQW |
| > 75 | YEMAIYKKY |
| 20 to 50 | EESSSPVDEY |
| 20 to 50 | RLLPGKVVW |
| 10 to 20 | DQVTVFLHF |
| 50 to 75 | QEWDPQKTEKY |
| 50 to 75 | SESLPRAPL |
| > 75 | VEQINISQDW |
| 10 to 20 | KQWEYNEKLAF |
| 20 to 50 | EDNLIHKF |
| > 75 | HELALRQTV |
| 50 to 75 | QELEQEVISL |
| 50 to 75 | QEDEQLLLRF |
| > 75 | EEWEWIQKL |
| 20 to 50 | SEYQDGKEF |
| 20 to 50 | LEYEAPKLY |
| 50 to 75 | VEDDNYKLSL |
| 50 to 75 | EEEDRDGHTW |
| 20 to 50 | DEIDKLTGY |
| 50 to 75 | KESMLKTTL |
| > 75 | SEDLAVHL |
| 50 to 75 | MELQVSSGF |
| 20 to 50 | DEDYTYLIL |

| peptide exchange yield [%] | Binder |
| --- | --- |
| 10 to 20 | DESADSEPHKY |
| 10 to 20 | TEEPQRLFY |
| 20 to 50 | EEFIGKIGI |
| 50 to 75 | KESQLPTVMDF |
| 50 to 75 | MESAKETRY |
| 20 to 50 | SEKEPGQQY |
| 50 to 75 | AEHPDFSPCSF |
| 50 to 75 | AEALVDGKWQEF |
| 50 to 75 | RELIKAIGL |
| 10 to 20 | HEIPQESL |
| 50 to 75 | QEILHGAVRF |
| 20 to 50 | AEDLEKKYA |
| 50 to 75 | SEQNIQRANLF |
| 50 to 75 | VEFPATRSL |
| 50 to 75 | LEDQLKPMLEW |
| 50 to 75 | AEQLRGFNA |
| > 75 | REVSVVDIL |
| > 75 | KEFGIGDLVW |
| 20 to 50 | VEEEISRHY |
| 20 to 50 | AETIFIVRL |
| 10 to 20 | EDLAVHLY |
| 50 to 75 | EEFCFSVRF |
| 50 to 75 | VESSQAFTW |
